Data: article PMC8160739, “Mycobacterium tuberculosis Binds Human Serum Amyloid A, and the Interaction Modulates the Colonization of Human Macrophages and the Transcriptional Response of the Pathogen” (Cells, 2021)

T1: recombinant Mycobacterium tuberculosis rTB18.6 (Mycobacterium tuberculosis H37Rv, UniProt P9WFN1 1-176)
T1 construct: also called pHis-tb18.6 product
T1 sequence: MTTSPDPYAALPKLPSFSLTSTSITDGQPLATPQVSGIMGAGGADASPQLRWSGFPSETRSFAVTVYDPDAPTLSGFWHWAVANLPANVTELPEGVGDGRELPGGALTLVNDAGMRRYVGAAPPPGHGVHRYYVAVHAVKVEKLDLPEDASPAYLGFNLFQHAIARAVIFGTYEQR

T2: recombinant Mycobacterium tuberculosis rABC (Mycobacterium tuberculosis H37Rv, UniProt P9WQK3 1-558)
T2 construct: also called rABC transporter; pHis-abc product
T2 sequence: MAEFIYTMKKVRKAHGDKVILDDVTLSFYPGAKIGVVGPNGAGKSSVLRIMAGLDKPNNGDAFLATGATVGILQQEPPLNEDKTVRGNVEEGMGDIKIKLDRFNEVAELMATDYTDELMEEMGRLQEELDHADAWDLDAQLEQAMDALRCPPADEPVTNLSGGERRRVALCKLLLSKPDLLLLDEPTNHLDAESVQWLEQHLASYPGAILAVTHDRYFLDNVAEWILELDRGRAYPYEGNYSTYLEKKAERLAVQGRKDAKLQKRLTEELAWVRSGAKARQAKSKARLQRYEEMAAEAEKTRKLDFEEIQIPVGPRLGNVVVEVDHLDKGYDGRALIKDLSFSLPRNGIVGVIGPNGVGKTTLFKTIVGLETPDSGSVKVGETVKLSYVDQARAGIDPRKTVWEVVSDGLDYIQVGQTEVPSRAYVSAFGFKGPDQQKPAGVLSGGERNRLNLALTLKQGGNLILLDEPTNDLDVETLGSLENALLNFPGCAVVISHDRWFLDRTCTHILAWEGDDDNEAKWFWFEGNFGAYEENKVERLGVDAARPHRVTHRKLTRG

B1: biotin-labeled recombinant human SAA1 (natural protein, UniProt P0DJI8 19-122, looked up)
chain: RSFFSFLGEAFDGARDMWRAYSDMREANYIGSDKYFHARGNYDAAKRGPGGAWAAEVITDARENIQRFFGHGAEDSLADQAANEWGRSGKDPNHFRPAGLPEKY
modifications: biotin (Sulfo-NHS-biotin labeling; sites not stated)
notes: serum amyloid A1 (SAA1), human, recombinant, bought from Sigma Aldrich; Same bought protein as m1, biotinylated; detected with streptavidin-HRP; also called biotinylated SAA1; biotin-labeled human SAA1; source: bought: Sigma Aldrich (recombinant), labeled with EZ-Link Micro Sulfo-NHS-Biotinylation Kit
B2: recombinant human serum amyloid A (SAA1) (natural protein, UniProt P0DJI8 19-122, looked up)
chain: RSFFSFLGEAFDGARDMWRAYSDMREANYIGSDKYFHARGNYDAAKRGPGGAWAAEVITDARENIQRFFGHGAEDSLADQAANEWGRSGKDPNHFRPAGLPEKY
notes: serum amyloid A1 (SAA1), human, recombinant, bought from Sigma Aldrich; also called human SAA1; human acute phase protein; source: bought: Sigma Aldrich (recombinant)

Tests used:
Conditions in all cases: both partners purified
[1] = molecular target: T3, recombinant Mycobacterium tuberculosis rEspB (Mycobacterium tuberculosis H37Rv, UniProt P9WJD9 1-460); assay: far-Western, overlay or dot blot; recombinant Mtb proteins separated by reducing SDS-PAGE (12% gel), transferred to nitrocellulose, incubated 2 h at room temperature with biotin-labeled SAA1 at 10 µg/mL in PBS/0.05% Tween 20/0.1% BSA; streptavidin-peroxidase detection
T3 construct: also called pHis-espB product

[2] = molecular target: T4, recombinant Mycobacterium tuberculosis rAtpA (Mycobacterium tuberculosis H37Rv, UniProt P9WPU7 1-549); assay: as above
T4 construct: also called pHis-atpA product

[3] = molecular target: T5, recombinant Mycobacterium tuberculosis rThiC (Mycobacterium tuberculosis H37Rv, UniProt P9WG79 1-547); assay: as above
T5 construct: also called pHis-thiC product

[4] = molecular target: T1, recombinant Mycobacterium tuberculosis …; assay: as above
[5] = molecular target: T3, recombinant Mycobacterium tuberculosis …; assay: SPR; Biacore X, CM5 chip; human SAA1 amine-coupled (7850 RU), BSA chip as control and blank; native recombinant Mtb proteins as analytes; 22-25 °C; HBS-EP pH 7.4 (0.01 M HEPES, 0.15 M NaCl, 3 mM EDTA, 0.005% P20); flow 5 or 20 µL/min; global fit, Langmuir 1:1 with drifting baseline
[6] = molecular target: T4, recombinant Mycobacterium tuberculosis …; assay: as above
[7] = molecular target: T5, recombinant Mycobacterium tuberculosis …; assay: as above
[8] = molecular target: T2, recombinant Mycobacterium tuberculosis …; assay: as above
[9] = molecular target: T1, recombinant Mycobacterium tuberculosis …; assay: as above

T3 sequence (P9WJD9 whole entry): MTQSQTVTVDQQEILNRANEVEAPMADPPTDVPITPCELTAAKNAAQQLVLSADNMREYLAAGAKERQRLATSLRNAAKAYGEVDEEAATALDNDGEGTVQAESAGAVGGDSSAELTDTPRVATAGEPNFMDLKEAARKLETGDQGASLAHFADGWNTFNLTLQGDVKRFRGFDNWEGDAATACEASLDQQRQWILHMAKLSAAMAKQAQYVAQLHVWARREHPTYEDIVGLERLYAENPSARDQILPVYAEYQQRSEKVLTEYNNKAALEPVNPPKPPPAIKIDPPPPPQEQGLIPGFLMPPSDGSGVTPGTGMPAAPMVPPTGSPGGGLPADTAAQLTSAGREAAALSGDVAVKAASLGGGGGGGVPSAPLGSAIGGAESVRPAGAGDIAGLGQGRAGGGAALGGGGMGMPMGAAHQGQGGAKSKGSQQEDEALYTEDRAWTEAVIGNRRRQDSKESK
T4 sequence (P9WPU7 whole entry): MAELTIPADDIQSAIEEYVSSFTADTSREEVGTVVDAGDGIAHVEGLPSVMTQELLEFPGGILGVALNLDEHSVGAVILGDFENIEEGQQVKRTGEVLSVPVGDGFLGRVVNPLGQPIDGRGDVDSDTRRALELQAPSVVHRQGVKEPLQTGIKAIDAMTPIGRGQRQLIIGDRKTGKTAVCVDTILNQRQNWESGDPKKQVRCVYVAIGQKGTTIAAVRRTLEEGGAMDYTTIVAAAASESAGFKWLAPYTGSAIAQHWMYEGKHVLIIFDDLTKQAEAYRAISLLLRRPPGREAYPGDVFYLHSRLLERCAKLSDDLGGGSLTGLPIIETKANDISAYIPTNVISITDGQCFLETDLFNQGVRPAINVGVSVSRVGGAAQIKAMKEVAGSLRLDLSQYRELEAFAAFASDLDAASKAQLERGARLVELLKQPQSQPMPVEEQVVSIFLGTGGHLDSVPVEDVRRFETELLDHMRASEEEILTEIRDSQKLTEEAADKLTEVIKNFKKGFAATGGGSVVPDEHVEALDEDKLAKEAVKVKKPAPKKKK
T5 sequence (P9WG79 whole entry): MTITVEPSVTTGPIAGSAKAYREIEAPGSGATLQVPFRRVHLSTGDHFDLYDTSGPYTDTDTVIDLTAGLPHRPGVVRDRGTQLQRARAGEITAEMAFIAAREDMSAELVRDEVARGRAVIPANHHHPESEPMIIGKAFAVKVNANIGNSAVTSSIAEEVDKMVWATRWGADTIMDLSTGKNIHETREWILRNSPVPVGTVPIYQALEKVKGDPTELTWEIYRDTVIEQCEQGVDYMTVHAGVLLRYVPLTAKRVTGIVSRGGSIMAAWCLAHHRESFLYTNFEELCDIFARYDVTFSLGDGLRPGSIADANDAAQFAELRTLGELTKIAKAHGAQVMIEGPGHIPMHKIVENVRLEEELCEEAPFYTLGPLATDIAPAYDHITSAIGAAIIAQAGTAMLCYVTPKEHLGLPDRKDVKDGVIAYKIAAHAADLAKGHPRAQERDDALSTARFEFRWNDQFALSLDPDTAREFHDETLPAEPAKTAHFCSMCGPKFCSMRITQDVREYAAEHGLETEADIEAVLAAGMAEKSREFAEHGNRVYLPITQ

| Binder | binding result [1] | binding result [2] | binding result [3] | binding result [4] | Kd [5] | Kd [6] | Kd [7] | Kd [8] | Kd [9] |
| --- | --- | --- | --- | --- | --- | --- | --- | --- | --- |
| B1 | binds | binds | binds | binds | – | – | – | – | – |
| B2 | – | – | – | – | 5.06 µM | 0.194 µM | 7.53 µM | 11.3 µM | 8.5 µM |
